Measured values taken from publication PMC9295147 (2022).

T1: dT14-3-3_biPKB, unphosphorylated (Tobacco | )
T1 chain: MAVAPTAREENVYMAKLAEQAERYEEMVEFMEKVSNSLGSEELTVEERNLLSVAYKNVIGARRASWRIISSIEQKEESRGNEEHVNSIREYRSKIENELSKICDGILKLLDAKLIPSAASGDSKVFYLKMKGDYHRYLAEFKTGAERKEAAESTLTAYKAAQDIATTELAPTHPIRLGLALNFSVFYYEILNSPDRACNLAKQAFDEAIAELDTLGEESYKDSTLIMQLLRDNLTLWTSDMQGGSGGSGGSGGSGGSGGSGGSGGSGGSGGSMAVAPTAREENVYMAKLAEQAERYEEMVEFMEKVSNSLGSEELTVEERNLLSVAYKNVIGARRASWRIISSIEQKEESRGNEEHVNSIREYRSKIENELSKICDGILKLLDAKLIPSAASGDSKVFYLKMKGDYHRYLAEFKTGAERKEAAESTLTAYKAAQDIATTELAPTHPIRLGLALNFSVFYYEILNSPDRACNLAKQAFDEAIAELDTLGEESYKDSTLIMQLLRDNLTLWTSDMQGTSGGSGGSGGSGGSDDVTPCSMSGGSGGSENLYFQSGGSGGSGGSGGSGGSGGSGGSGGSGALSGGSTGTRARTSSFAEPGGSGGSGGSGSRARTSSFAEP

T2: dT14-3-3_PKB/CHK1, unphosphorylated (Tobacco | )
T2 chain: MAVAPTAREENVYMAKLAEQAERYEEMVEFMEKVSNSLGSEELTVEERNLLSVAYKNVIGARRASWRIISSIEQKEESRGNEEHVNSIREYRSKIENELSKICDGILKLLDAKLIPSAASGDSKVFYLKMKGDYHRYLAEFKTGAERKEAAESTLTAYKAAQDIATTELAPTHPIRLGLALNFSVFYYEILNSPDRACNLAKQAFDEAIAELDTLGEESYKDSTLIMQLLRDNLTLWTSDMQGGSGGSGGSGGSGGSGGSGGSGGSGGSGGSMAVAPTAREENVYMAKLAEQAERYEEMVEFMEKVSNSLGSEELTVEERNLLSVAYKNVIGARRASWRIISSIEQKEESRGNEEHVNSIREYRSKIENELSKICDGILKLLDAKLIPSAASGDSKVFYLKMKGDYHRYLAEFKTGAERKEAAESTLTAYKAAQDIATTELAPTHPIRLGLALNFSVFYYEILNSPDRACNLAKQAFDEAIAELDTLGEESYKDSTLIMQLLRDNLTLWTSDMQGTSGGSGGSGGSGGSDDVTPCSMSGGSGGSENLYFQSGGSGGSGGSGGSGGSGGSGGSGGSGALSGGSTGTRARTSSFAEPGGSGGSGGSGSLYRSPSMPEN

T3: dT14-3-3_biCHK1, unphosphorylated (Tobacco | )
T3 chain: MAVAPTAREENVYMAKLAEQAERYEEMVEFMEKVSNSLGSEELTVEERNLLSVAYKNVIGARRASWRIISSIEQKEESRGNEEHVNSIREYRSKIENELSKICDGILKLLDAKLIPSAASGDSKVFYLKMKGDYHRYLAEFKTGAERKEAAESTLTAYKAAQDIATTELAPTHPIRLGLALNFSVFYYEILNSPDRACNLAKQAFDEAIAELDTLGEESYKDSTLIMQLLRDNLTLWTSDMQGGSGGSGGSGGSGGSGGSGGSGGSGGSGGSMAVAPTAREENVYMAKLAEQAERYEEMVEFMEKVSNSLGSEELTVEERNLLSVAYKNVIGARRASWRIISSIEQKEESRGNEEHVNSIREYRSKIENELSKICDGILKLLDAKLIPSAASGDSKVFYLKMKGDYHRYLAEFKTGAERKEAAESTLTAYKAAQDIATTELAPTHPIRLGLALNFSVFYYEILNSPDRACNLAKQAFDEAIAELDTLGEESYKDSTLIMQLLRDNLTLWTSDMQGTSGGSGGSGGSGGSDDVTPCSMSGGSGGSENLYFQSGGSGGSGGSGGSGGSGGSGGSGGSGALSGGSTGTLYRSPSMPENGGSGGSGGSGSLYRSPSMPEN

T4: dT14-3-3_PKA/CHK1, unphosphorylated (Tobacco | )
T4 chain: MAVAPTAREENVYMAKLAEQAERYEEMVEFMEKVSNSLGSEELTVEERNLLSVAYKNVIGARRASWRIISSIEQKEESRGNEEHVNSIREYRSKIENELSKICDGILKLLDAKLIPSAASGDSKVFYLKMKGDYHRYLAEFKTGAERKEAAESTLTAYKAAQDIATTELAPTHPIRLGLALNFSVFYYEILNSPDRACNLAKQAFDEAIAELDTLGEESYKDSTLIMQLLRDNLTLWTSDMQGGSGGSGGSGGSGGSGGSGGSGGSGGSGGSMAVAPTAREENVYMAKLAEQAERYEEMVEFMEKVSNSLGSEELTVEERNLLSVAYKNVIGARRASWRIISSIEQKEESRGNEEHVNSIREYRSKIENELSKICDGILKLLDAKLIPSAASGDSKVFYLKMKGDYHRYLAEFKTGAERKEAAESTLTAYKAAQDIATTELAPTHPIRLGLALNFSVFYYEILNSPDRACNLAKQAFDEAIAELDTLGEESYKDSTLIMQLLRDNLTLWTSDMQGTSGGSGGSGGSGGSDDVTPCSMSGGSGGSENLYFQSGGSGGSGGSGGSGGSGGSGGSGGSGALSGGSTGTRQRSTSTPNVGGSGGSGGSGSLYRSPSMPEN

T5: dT14-3-3_biPKA, unphosphorylated (Tobacco | )
T5 chain: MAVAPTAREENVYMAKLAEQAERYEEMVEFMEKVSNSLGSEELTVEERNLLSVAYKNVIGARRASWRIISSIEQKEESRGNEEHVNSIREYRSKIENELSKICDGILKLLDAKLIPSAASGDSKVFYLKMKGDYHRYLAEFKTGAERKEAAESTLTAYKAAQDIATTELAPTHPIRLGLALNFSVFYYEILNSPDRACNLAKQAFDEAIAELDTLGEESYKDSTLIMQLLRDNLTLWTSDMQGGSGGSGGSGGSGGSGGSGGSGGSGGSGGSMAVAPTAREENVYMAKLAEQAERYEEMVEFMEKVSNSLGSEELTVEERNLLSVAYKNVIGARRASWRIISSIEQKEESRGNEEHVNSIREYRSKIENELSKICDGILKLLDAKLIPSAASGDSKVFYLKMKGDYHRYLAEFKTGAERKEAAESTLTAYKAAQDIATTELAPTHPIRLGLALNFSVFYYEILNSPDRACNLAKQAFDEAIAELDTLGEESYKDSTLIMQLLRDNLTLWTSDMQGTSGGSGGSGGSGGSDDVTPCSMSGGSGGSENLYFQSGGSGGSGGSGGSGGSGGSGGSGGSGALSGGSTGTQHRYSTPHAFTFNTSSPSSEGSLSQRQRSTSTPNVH

T6: dT14-3-3_PKA/PKB, unphosphorylated (Tobacco | )
T6 chain: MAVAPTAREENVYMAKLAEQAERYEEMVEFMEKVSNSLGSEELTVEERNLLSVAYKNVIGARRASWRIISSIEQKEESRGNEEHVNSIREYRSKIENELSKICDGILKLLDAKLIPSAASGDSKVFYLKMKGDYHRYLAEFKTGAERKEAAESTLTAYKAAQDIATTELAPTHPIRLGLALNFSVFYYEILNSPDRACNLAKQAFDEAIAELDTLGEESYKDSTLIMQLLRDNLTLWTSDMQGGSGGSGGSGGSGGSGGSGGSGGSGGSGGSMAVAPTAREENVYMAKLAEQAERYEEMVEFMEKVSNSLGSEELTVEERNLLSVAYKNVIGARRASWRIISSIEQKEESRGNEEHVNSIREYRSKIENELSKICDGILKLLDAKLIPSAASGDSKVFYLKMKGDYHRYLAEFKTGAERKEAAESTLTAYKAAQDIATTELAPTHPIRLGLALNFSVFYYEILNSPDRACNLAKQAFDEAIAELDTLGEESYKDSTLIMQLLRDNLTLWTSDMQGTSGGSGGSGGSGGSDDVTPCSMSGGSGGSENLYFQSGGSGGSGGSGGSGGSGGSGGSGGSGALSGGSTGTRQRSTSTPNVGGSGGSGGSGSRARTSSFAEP

T7: dimeric Tobacco 14-3-3 scaffold (Tobacco)
T7 chain: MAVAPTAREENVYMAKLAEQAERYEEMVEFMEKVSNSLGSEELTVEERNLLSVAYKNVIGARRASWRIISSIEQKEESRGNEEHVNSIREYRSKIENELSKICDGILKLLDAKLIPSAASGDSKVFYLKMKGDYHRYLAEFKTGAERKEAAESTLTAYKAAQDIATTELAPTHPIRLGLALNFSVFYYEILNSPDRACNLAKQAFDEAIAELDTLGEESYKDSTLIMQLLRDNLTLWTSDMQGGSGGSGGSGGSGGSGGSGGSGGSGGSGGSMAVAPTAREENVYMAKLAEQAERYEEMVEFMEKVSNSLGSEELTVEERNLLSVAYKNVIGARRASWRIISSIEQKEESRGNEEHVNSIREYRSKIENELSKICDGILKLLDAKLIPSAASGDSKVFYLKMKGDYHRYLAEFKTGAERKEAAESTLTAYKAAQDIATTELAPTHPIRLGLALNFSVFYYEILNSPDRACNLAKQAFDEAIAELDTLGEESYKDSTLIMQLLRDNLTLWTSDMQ

T8: mExoS peptide (C-terminal region of exoenzyme S)
T8 chain: QGLLDALDLAS


Key:
[1] = target: T1, dT14-3-3_biPKB, unphosphorylated; experiment: FP
[2] = target: T2, dT14-3-3_PKB/CHK1, unphosphorylated; experiment: FP
[3] = target: T3, dT14-3-3_biCHK1, unphosphorylated; experiment: FP
[4] = target: T4, dT14-3-3_PKA/CHK1, unphosphorylated; experiment: FP
[5] = target: T5, dT14-3-3_biPKA, unphosphorylated; experiment: FP
[6] = target: T6, dT14-3-3_PKA/PKB, unphosphorylated; experiment: FP
[7] = target: T7, dimeric Tobacco 14-3-3 scaffold; experiment: FP
[8] = target: T8, mExoS peptide (C-terminal region of …); experiment: fluorescence polarisation

Binder	Kd [1] [µM]	Kd [2] [µM]	Kd [3] [µM]	Kd [4] [µM]	Kd [5] [µM]	Kd [6] [µM]	Kd [7] [µM]	fold decrease in binding affinity relative to the unphosphorylated state [8] [fold]
QGLLDALDLAS [mExoS peptide (C-terminal region of exoenzyme S)]	6.91	6.62	7.57	6.64	5.77	6.43	9.69	
dT14-3-3_biPKB, phosphorylated by PKB (protein, modifications not checked) MAVAPTAREENVYMAKLAEQAERYEEMVEFMEKVSNSLGSEELTVEERNLLSVAYKNVIGARRASWRIISSIEQKEESRGNEEHVNSIREYRSKIENELSKICDGILKLLDAKLIPSAASGDSKVFYLKMKGDYHRYLAEFKTGAERKEAAESTLTAYKAAQDIATTELAPTHPIRLGLALNFSVFYYEILNSPDRACNLAKQAFDEAIAELDTLGEESYKDSTLIMQLLRDNLTLWTSDMQGGSGGSGGSGGSGGSGGSGGSGGSGGSGGSMAVAPTAREENVYMAKLAEQAERYEEMVEFMEKVSNSLGSEELTVEERNLLSVAYKNVIGARRASWRIISSIEQKEESRGNEEHVNSIREYRSKIENELSKICDGILKLLDAKLIPSAASGDSKVFYLKMKGDYHRYLAEFKTGAERKEAAESTLTAYKAAQDIATTELAPTHPIRLGLALNFSVFYYEILNSPDRACNLAKQAFDEAIAELDTLGEESYKDSTLIMQLLRDNLTLWTSDMQGTSGGSGGSGGSGGSDDVTPCSMSGGSGGSENLYFQSGGSGGSGGSGGSGGSGGSGGSGGSGALSGGSTGTRARTSSFAEPGGSGGSGGSGSRARTSSFAEP								10
dT14-3-3_biPKA, phosphorylated by PKA (protein, modifications not checked) MAVAPTAREENVYMAKLAEQAERYEEMVEFMEKVSNSLGSEELTVEERNLLSVAYKNVIGARRASWRIISSIEQKEESRGNEEHVNSIREYRSKIENELSKICDGILKLLDAKLIPSAASGDSKVFYLKMKGDYHRYLAEFKTGAERKEAAESTLTAYKAAQDIATTELAPTHPIRLGLALNFSVFYYEILNSPDRACNLAKQAFDEAIAELDTLGEESYKDSTLIMQLLRDNLTLWTSDMQGGSGGSGGSGGSGGSGGSGGSGGSGGSGGSMAVAPTAREENVYMAKLAEQAERYEEMVEFMEKVSNSLGSEELTVEERNLLSVAYKNVIGARRASWRIISSIEQKEESRGNEEHVNSIREYRSKIENELSKICDGILKLLDAKLIPSAASGDSKVFYLKMKGDYHRYLAEFKTGAERKEAAESTLTAYKAAQDIATTELAPTHPIRLGLALNFSVFYYEILNSPDRACNLAKQAFDEAIAELDTLGEESYKDSTLIMQLLRDNLTLWTSDMQGTSGGSGGSGGSGGSDDVTPCSMSGGSGGSENLYFQSGGSGGSGGSGGSGGSGGSGGSGGSGALSGGSTGTQHRYSTPHAFTFNTSSPSSEGSLSQRQRSTSTPNVH								35
